Data published in patent US20230416329A1 (INSTITUTE OF MATERIA MEDICA CHINESE ACADEMY OF MEDICAL …, published 2023).
Bridge positions count the residues as written; N and C are the ends. Ends that are not written are not given here.

B1: PCSK9_5EC (peptide)
peptide: WEEALDWVGICTASIPPICQGTVFTS
modifications: disulfide 11-19 (inferred)
notes: Contains an anti-elastase scaffold, with a disulfide bond between its two Cys
B2: PCSK9_6EC (peptide)
peptide: WEEYLDYVGICTASIPPICQGTVFTS
modifications: disulfide 11-19 (inferred)
notes: as for B1
B3: PCSK9_9CH (peptide)
peptide: TVFTSGFCTYSIPPQCYGWEEYLDWV
modifications: disulfide 8-16 (inferred)
notes: Contains an anti-chymotrypsin scaffold, with a disulfide bond between its two Cys
B4: PCSK9_2EC (peptide)
peptide: TVFTSWEEALDWVGICTASIPPICQ-OH
modifications: disulfide 16-24 (inferred)
notes: as for B1
B5: PCSK9_5CH (peptide)
peptide: WEEALDWVGFCTYSIPPQCYGTVFTS
modifications: disulfide 11-19 (inferred)
notes: as for B3
B6: PCSK9_6CH (peptide)
peptide: WEEYLDYVGFCTYSIPPQCYGTVFTS
modifications: disulfide 11-19 (inferred)
notes: as for B3
B7: PCSK9_9EC (peptide)
peptide: TVFTSGICTASIPPICQWEEYLDWV
modifications: disulfide 8-16 (inferred)
notes: as for B1
B8: PCSK9_5 (peptide)
peptide: WEEALDWVCGRATKSIPPICFGTVFTS
modifications: disulfide 9-20 (inferred)
notes: Hybrid with the anti-trypsin scaffold BT9; A disulfide bond joins the two Cys of the scaffold
B9: PCSK9_6 (peptide)
peptide: WEEYLDYVCGRATKSIPPICFGTVFTS
modifications: disulfide 9-20 (inferred)
notes: as for B8
B10: PCSK9_3CH (peptide)
peptide: FCTYSIPPQCYGGTVFTSWEEALDWV
modifications: disulfide 2-10 (inferred)
notes: as for B3
B11: PCSK9_2CH (peptide)
peptide: TVFTSWEEALDWVGFCTYSIPPQCYG
modifications: disulfide 16-24 (inferred)
notes: as for B3
B12: PCSK9_7 (peptide)
peptide: TVFTSGCGRATKSIPPICFWEEYLDWV
modifications: disulfide 7-18 (inferred)
notes: as for B8
B13: PCSK9_8 (peptide)
peptide: TVFTSGCGRATKSIPPICFSWEEYLDWV
modifications: disulfide 7-18 (inferred)
notes: as for B8
B14: PCSK9_9 (peptide)
peptide: TVFTSGRCTKSIPPICFWEEYLDWV
modifications: disulfide 8-16 (inferred)
notes: Hybrid with the anti-trypsin scaffold BT45; A disulfide bond joins the two Cys of the scaffold
B15: PCSK9_3EC (peptide)
peptide: ICTASIPPICQGTVFTSWEEALDWV
modifications: disulfide 2-10 (inferred)
notes: as for B1

molecular target: porcine pancreatic elastase (porcine, UniProt P00772 27-266); assay: elastase inhibition in vitro
Experimental: The substrates N-succinyl-Ala-Ala-Pro-Phe-p-nitroaniline (AAPFpNA), Nα—Benzoyl-L-arginine-4-nitroaniline hydrochloride (BApNA) and N-succinyl-[…] (AAApNA) are used in competitive binding reaction to determine the inhibitory activities against α-chymotrypsin, bovine trypsin, and porcine pancreatic elastase, respectively. Experiments for α-chymotrypsin and bovine trypsin inhibition were measured in 20 mM CaCl₂, 50 mM Tris-HCl buffer (pH 7.8), and that for porcine elastase inhibition was measured in 50 mM Tris-HCl buffer (pH 8.0). The concentration of the peptide was measured using optical density (OD) at 280 nm. The Michaelis constant (Kₘ) of the enzyme hydrolysis substrate is calculated from the initial rate of substrate hydrolysis at 405 nm. The absorbance value of the substrate was measured at 405 nm after complete hydrolysis. All data were processed using nonlinear regression.
(1) Added a total 190 μL of different concentrations of peptides (ECs) against elastase and reaction buffer (20 mM CaCl₂, 50 mM Tris-HCl buffer (pH 8.0)) into the pre-cold 96 well plate, followed by preheating at 37° C. for 5 min and centrifugated at 500 rpm for 1 min and allowed to stand for 4 minutes. […] Finally, added 2 μL of 100 mM AAApNA, and mixed by centrifugation at 500 rpm for 1 min. The plate was incubated at 37° C. for 60 min, and the absorbance value at 405 nm was measured. Three repetitions were made, and only reaction buffer and substrate were added in the blank control as the minimum absorption value (Min OD_{405 nm}); Only reaction buffer, enzyme and substrate were added in the negative control as the maximum absorption value (Max OD₄₀₅ nm). [0472] (2) In the 200 μL of reaction system, the final concentrations of elastase and AAApNA were 0.5 μM and 1 mM, respectively. [0473] (3) Data statistics

porcine pancreatic elastase, sequence (P00772 27-266 limits assumed): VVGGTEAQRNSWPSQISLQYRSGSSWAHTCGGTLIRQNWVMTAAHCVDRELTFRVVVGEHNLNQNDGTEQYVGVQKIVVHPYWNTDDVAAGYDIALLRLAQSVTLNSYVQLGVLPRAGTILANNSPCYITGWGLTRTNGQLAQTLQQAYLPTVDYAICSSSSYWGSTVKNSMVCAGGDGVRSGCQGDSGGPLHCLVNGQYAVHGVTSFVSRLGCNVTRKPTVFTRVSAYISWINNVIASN

binding result	Binder
binds	LCTASIPPICQ (disulfide 2-10 (inferred)) [EC12]
binds	YCTASIPPICQ (disulfide 2-10 (inferred)) [EC29]
binds	VCTASIPPICQ (disulfide 2-10 (inferred)) [EC22]
binds	ICTASIPPICQ (disulfide 2-10 (inferred)) [EC23]
binds	LCTASIPPQCY (disulfide 2-10 (inferred)) [EC1]
binds	LCTASNPPICQ (disulfide 2-10 (inferred)) [EC25]
binds	LCTASIPPQCQ (disulfide 2-10 (inferred)) [EC18]

molecular target: T1, PCSK9 protein (UniProt Q8NBP7 31-692, limits assumed); assay: PCSK9-LDLR in vitro binding assay kit, OD450/540; peptide 10 µM; inhibition of PCSK9 binding to LDLR
T1 construct: Kit reagent; also called proprotein convertase subtilisin/kexin type 9
Experimental: (§1) Solvent control: replace polypeptide with 5 μL solvent.
(§2) ^aThe concentration of samples in the table was 50 μM.

Inhibitory rate (%)	Binder
85.2	B1
96.7	B2
98.4	B3
73.1	B4
99.4	B5
75.3	B6
94.3	B7

molecular target: T1, PCSK9 protein; assay: PCSK9-LDLR in vitro binding assay kit, OD450/540; peptide 100 µM; inhibition of PCSK9 binding to LDLR
Experimental: as §1, §2

Inhibitory rate (%)	Binder
95.3	B1
99.4	B2
102	B3
100	B4
93.7	B6
101	B7

molecular target: T1, PCSK9 protein; assay: PCSK9-LDLR in vitro binding assay kit, OD450/540; peptide 50 µM, PCSK9 75 ng/mL; inhibition of PCSK9 binding to LDLR

Inhibitory rate (%)	Binder
44.7	WEEALDWVCGRATKSIPPICFGYVANDLKI (disulfide 9-20 (inferred)) [PCSK9_12]
77.9	B8
87	B9
99.2	B10
-18.5	GTNEALDNNCGRATKSIPPICFYVANDLKI (disulfide 10-21 (inferred)) [PCSK9_10]
100	B11
80.7	B12
75.7	B13
93.9	B14
3.6	GTNEALDNNCGRATKSIPPICFVANDLK (disulfide 10-21 (inferred)) [PCSK9_11]
-8.7	GTNEALDNNCGRATKSIPPICFGTVFTS (disulfide 10-21 (inferred)) [PCSK9_14]
99.6	B15
